For test [1], the target named is LysB endolysin (putative N-acetylmuramoyl-L-alanine amidase) from the prophage of Clostridium botuli (Clostridium botulinum E3 strain Alaska E43 (prophage)). The test can be described thus: SEC.
Test [2] shares this target. The experiment in a line: AUC.

As usually defined, the stoichiometry N is the number of molecules, sites or subunits per partner or assembly. In the case of “LysB endolysin (putative N-acetylmuramoyl-L-alanine amidase) from the prophage of Clostridium botuli (enzyme)”, the stoichiometry N in test [1] and in test [2] was 2 in each case.
